Here are results for three substances from publication PMC5863373.

For assay [1], the target named is human mitochondrial lysyl-tRNA synthetase with a C-terminal HA-tag (human) (UniProt Q15046). Nature of the assay: AlphaScreen or HTRF; HTRF; 1.5 nM mLysRS-HA or mLysRS∆C-HA (dimer) with rising His-tagged Pol (0.02 to 10 nM dimer), IN (0.5 to 125 nM dimer) or TF (1 to 1000 nM monomer); 10 mM Tris-HCl pH 7.5, 50 mM NaCl, 10 mM 2-mercaptoethanol, BSA 1 mg/ml, 1 h on ice; anti-H6-Eu3+ cryptate and anti-HA-XL665; apparent Kd. In general terms: Alpha assays give light when donor and acceptor beads are brought close together.

Assay [2] shares this target. The assay is described as above. This is another data set of the same source.
In a further assay the target is p38 (Homo sapiens) (UniProt Q13155). Kind of assay: SPR. As to conditions: cited from earlier work.
Chain of p38 (Homo sapiens) (Q13155 whole entry): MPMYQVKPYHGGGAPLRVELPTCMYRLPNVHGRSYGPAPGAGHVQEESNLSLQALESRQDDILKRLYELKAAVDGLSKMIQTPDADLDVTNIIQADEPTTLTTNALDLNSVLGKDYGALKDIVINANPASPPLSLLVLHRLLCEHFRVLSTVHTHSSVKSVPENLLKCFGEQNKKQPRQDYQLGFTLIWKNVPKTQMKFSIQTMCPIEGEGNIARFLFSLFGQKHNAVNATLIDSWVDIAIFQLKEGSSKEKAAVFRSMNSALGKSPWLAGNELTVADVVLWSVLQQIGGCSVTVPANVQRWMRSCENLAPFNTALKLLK
The target in assay [3] is human mitochondrial lysyl-tRNA synthetase with a C-terminal HA-tag (human) (UniProt Q15046). Kind of assay: AlphaScreen or HTRF; HTRF as in a1, Pol on mLysRS in the presence of 1 μM tRNA3^Lys.

As to “HIV-1 integrase with a C-terminal His6 tag (domain or fragment)”, the Kd in assay [1] turned out to be 11.8 nM; in assay [2] it was 12.9 nM.

In the case of mLysRS (from UniProt Q15046), the Kd with p38 (Homo sapiens) is 0.3 nM.

Consider “HIV-1 Pol polyprotein (Pol region of GagPol) with a C-terminal His6 tag (natural protein)”, for which the Kd is 1.3 nM in assay [1] and 0.71 nM in assay [3].
